Here are results for 1 molecule from article PMC11059514 (Molecular Metabolism, 2024).

The target in this assay is T1, PPARα bait (pCLG-PPARα), full-length PPARα fused to a mutant leptin receptor (UniProt Q07869 1-468).
T1 sequence: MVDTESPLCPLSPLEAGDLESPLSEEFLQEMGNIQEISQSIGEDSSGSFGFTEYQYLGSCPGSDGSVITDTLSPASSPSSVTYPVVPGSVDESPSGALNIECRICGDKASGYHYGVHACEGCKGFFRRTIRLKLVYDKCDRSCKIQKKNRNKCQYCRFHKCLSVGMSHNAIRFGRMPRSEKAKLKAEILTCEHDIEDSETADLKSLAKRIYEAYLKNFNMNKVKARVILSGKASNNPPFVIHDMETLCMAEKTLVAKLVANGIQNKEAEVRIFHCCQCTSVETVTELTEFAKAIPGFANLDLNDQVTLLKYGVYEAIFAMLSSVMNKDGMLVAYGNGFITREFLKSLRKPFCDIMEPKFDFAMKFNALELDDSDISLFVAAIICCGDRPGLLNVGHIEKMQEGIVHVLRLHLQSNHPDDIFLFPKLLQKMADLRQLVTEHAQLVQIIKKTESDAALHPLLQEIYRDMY
Put plainly: two-hybrid.

B1: ERRα prey (pMG1-ERRα), full-size ERRα ORF coupled to gp130 (natural protein)
chain: MSSQVVGIEPLYIKAEPASPDSPKGSSETETEPPVALAPGPAPTRCLPGHKEEEDGEGAGPGEQGGGKLVLSSLPKRLCLVCGDVASGYHYGVASCEACKAFFKRTIQGSIEYSCPASNECEITKRRRKACQACRFTKCLRVGMLKEGVRLDRVRGGRQKYKRRPEVDPLPFPGPFPAGPLAVAGGPRKTAAPVNALVSHLLVVEPEKLYAMPDPAGPDGHLPAVATLCDLFDREIVVTISWAKSIPGFSSLSLSDQMSVLQSVWMEVLVLGVAQRSLPLQDELAFAEDLVLDEEGARAAGLGELGAALLQLVRRLQALRLEREEYVLLKALALANSDSVHIEDAEAVEQLREALHEALLEYEAGRAGPGGGAERRRAGRLLLTLPLLRQTAGKVLAHFYGVKLEGKVPMHKLFLEMLEAMMD
Consider B1, for which the “fold increase of the MAPPIT signal on serum starvation” value was approximately 3 fold.
